System: Yarrowia lipolytica strain ATCC #76982(Leu-)
Experiment: EDA substrate feeding of Y. lipolytica expressing codon-optimized Δ8 desaturase genes
Type: cell-based
Conditions: MM containing 10 μg of EDA substrate, about 24 hr at 30° C.
Protocol: Yarrowia lipolytica strain ATCC #76982(Leu-) was transformed with pDMW240 (FIG. 8D) and pDMW255, respectively, as described in the General Methods. Yeast containing the recombinant constructs were grown in MM supplemented with EDA [20:2(11,14)]. Specifically, single colonies of transformant Y. lipolytica containing either pDMW240 (containing D8S-1) or pDMW255 (containing D8S-2) were grown in 3 mL MM at 30° C. to an OD600˜1.0. For substrate feeding, 100 μl of cells were then subcultured in 3 mL MM containing 10 μg of EDA substrate for about 24 hr at 30° C. The cells were collected by centrifugation, lipids were extracted, and fatty acid methyl esters were prepared by trans-esterification, and subsequently analyzed with a Hewlett-Packard 6890 GC.
A three amino acid difference between the protein sequence of the Δ8 desaturase deposited in GenBank (Accession No. AAD45877 [SEQ ID NO:43]) and in WO 00/34439 or Wallis et al. (Archives of Biochem. Biophys, 365:307-316 (1999)) (SEQ ID NO:252 herein) was found. Specifically, three amino acids appeared to be missing in GenBank Accession No. […]. […]

B1: D8S-3: synthetic Δ8 desaturase gene in pDMW261, SEQ ID NO:255 (protein)
chain: MKSKRQALSPLQLMEQTYDVSAWVNFHPGGAEIIENYQGRDATDAFMVMHFQEAFDKLKRMPKINPSFELPPQAAVNEAQEDFRKLREELIATGMFDASPLWYSYKISTTLGLGVLGYFLMVQYQMYFIGAVLLGMHYQQMGWLSHDICHHQTFKNRNWNNLVGLVFGNGLQGFSVTCWKDRHNAHHSATNVQGHDPDIDNLPPLAWSEDDVTRASPISRKLIQFQQYYFLVICILLRFIWCFQCVLTVRSLKDRDNQFYRSQYKKEAIGLALHWTLKALFHLFFMPSILTSLLVFFVSELVGGFGIAIVVFMNHYPLEKIGDPVWDGHGFSVGQIHETMNIRRGIITDWFFGGLNYQIEHHLWPTLPRHNLTAVSYQVEQLCQKHNLPYRNPLPHEGLVILLRYLAVFARMAEKQPAGKAL
modifications: D8S-3: synthetic delta 8-desaturase gene codon-optimized for Yarrowia lipolytica in pDMW261
B1 was tested, and the “desaturation of EDA to DGLA” value was “No desaturation of EDA to DGLA was observed”.
